From patent US20040265295

Assays:
[1] = tested on: His-PIPKIγ661 C-terminus, wild-type (439-661)
[2] = tested on: His-PIPKIγ661 C-terminus (439-661) Tyr644 to Phe mutant
[3] = tested on: His-PIPKIγ661 C-terminus (439-661) Tyr644/649 to Phe mutant
[4] = tested on: His-PIPKIγ661 C-terminus (439-661) Tyr649 to Phe mutant
Sequence of His-PIPKIγ661 C-terminus (439-661) Tyr649 to Phe mutant (chain, as listed by the source mutant): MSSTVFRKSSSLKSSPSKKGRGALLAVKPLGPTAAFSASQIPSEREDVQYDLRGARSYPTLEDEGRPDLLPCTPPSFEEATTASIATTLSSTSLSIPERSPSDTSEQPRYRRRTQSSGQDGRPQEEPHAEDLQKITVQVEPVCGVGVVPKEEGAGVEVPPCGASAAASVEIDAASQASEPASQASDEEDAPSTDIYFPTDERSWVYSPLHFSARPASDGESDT

Sequence of His-PIPKIγ661 C-terminus, wild-type (439-661) (chain, as listed by the source): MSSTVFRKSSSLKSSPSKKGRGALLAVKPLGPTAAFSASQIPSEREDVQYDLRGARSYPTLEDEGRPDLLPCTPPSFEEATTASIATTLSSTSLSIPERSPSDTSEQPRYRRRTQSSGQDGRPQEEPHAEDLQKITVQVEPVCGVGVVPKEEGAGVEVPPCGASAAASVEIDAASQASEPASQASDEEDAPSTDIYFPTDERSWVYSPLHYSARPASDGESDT
Sequence of His-PIPKIγ661 C-terminus (439-661) Tyr644 to Phe mutant (chain, as listed by the source mutant): as the sequence (chain, as listed by the source) above, with Y206F counted along it
Sequence of His-PIPKIγ661 C-terminus (439-661) Tyr644/649 to Phe mutant (chain, as listed by the source mutant): as the sequence (chain, as listed by the source) above, with Y206F, Y211F counted along it

c-SrcTyr527Phe
in vitro kinase assay, phosphorylation of the recombinant substrate [1]: c-Src directly phosphorylated recombinant PIPKIγ661 tail | in vitro kinase assay, phosphorylation of the recombinant substrate [2]: not efficiently phosphorylated by c-Src in vitro compared with wild-type | in vitro kinase assay, phosphorylation of the recombinant substrate [3]: not efficiently phosphorylated by c-Src in vitro compared with wild-type | in vitro kinase assay, phosphorylation of the recombinant substrate [4]: PIPKIγTyr^649->Phe is efficiently phosphorylated by c-Src
